Results published in the supplement of paper PMC12042874.
± gives the uncertainty stated by the source.

Test: amyloid nucleation score (Sup35N fusion, yeast selection) (log enrichment); library NNK1; higher = more nucleation; inactive = no reads after selection
In short: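 The nucleation score is a DiMSum log enrichment of output over input reads, centred on the mode score of non-aggregating sequences. Sequences under 100 input reads were excluded, and reads came from Illumina sequencing of plasmid inserts. Psi-negative yeast expressing Sup35N fused to peptides of 20 random codons were induced with 100 μM copper sulfate for 24 hours and grown 7 days at 30°C on medium lacking adenine and uracil. Random libraries had three technical output replicates.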

Substance	amyloid nucleation score
FVLSNIPVAYLANANNAFHF	0.677 ± 0.52
FVMHSSSM	-0.34 ± 0.53
FVRCSAKMDLWSVLTVCSFC	3.2 ± 0.12
FVSSVGKSEQVPSTEFFCVS	0.174 ± 1.5
FVTDCLHYRRTWQLGC	0.419 ± 0.28
FVVQPYHYKSY	0.264 ± 0.34
FVVSDRGWTQALRHYPDTRM	-0.25 ± 0.34
FWAHMMRIASNYKFSLYL	inactive
FWDVVKLNGGSGMALFYAGL	0.145 ± 1
FWGWLRPWLLKSSEDPLKLE	-0.617 ± 0.57
FWHGSCSLDNDFHS	-0.442 ± 0.51
FWPCFSWYC	2.16 ± 0.15
FWVKVLY	-0.654 ± 0.37
FYAVVFYYDTDSAARCRFC	6.32 ± 0.075
FYCLSNKFFYIVCRNALQSS	-0.324 ± 0.35
FYDLFNVNIGLGDFKSVCFL	2.66 ± 0.2
FYGIARNVLRVGESMARYT	-0.059 ± 1.2
FYIMTLGYCSWFSVGKRLSP	-0.551 ± 0.43
FYLHRAIWPSYHVSRLVRHR	-0.979 ± 2.7
FYLVATCVAFFRLHWFACN	-0.218 ± 0.36
FYRNTGFMW	-1.42 ± 2.7
FYSALLGQTRYSRSSRSSTE	inactive
FYSFTGGAVGLGLC	1.11 ± 0.49
FYWHHWTNLAIIVEYILGEW	0.571 ± 1.2
GACGGKFRVYGKGLILWVRS	0.253 ± 0.37

Substance	amyloid nucleation score
GAFCWRLVGEGLFVALDVCE	0.458 ± 0.87
GAGLYCR	0.376 ± 0.52
GAGRNSWRCCNLLFSEDMIG	2.79 ± 0.088
GARQHATVAREAATLCF	0.094 ± 1.4
GASWNCAQYRMMD	-0.338 ± 1.7
GATVNSVWSVPKQVTWSGMC	-0.138 ± 0.32
GAVDSYLQRLFGLFRWDTLK	-0.375 ± 0.64
GAYCFSVCNHREL	-0.365 ± 1.1
GCALPQYKILWSFRFYWVGN	inactive
GCCSVFQNCCSSRVYIFVPI	4.87 ± 0.082
GCDCDQVLKYHARCMYVKDE	inactive
GCDGATVAGGTNYPDQMYSF	0.786 ± 0.74
GCFIVR	-0.768 ± 0.98
GCGGTGAFTVQGKRQFIAGR	-0.031 ± 0.27
GCIGAQRLNCLWSTRRYLVY	5.42 ± 0.06
GCLRTWQITLVEYNCMTLRI	0.215 ± 1.2
GCTLLESCVYGKSVRSYHQW	0.253 ± 0.52
GDLKSILVVLFSSLCVPTLR	1.26 ± 0.21
GDNMDEEARWRLPVRFDRAS	-0.013 ± 1.2
GEFAYSMVQGHYRIMLMSLK	1.49 ± 0.68
GEIITWLSGIPLDTVCILRM	-0.229 ± 0.25
GELLKMNVQIRYMGIWVNIL	3.46 ± 0.18
GERTCSYIYGLFTIFYTGLR	-0.048 ± 1.3
GEYCKSLSTE	1.01 ± 0.93
GFCFNECFLAGV	-0.285 ± 0.59

Substance	amyloid nucleation score
GFCNYMSFCFHIDASE	7.587 ± 0.056
GFDKMMCWYYGLTVIVMDGS	-0.076 ± 0.25
GFEWVRVYWWGSYVGKRMGT	-0.219 ± 0.91
GFFVQNRTWQIH	-0.858 ± 0.45
GFGGSGLTWGSRVCGV	-1.5 ± 2.4
GFGQAGGPSGESY	0.722 ± 0.75
GFIKPILEQGRYHNESRVLL	0.243 ± 0.58
GFKPWVVCWTWQAAPKVRSP	0.702 ± 0.73
GFLTVNYWHSEV	0.065 ± 0.21
GFMERLASIYTFFWGVDSK	-0.339 ± 1.2
GFNLFCATESYYFFSLMVMG	-0.13 ± 0.25
GFPTPEPEDNVARSVRWIYS	-1.47 ± 1
GFPVVAEHVVEFKLV	0.093 ± 0.7
GFSSVPEGDSINPR	-0.09 ± 0.54
GFTGARVSTQHRLRGN	-0.245 ± 0.84
GFWSRSGSYQLICIYFGGYG	-0.296 ± 0.4
GFYRAERYSRFMRAVGRLSN	-0.771 ± 0.76
GFYVAETRKVRLCMARWYCG	0.368 ± 0.47
GGELKARNKREGNQSSA	0.058 ± 0.72
GGFFYMWRYRLCRLGKFGAP	-0.76 ± 0.6
GGHYAVQNPMRVYAYGH	-0.667 ± 1
GGKESLFRCFADRSCFMYI	-0.724 ± 2.4
GGLKQFTGSRTHGLWSNGQM	-0.337 ± 0.89
GGLQKMVPNSNLCFLEDP	-0.713 ± 1.7
GGLSNSLSTAVQDW	-0.995 ± 0.61

Substance	amyloid nucleation score
GGLVRSKFYFTL	0.19 ± 0.25
GGPDTMEMGSFGDARATDAG	1.03 ± 0.93
GGRNF	-0.696 ± 0.57
GGSFKGYSLIV	0.678 ± 0.66
GGTGMVGRDANTSFIFWDIV	-0.099 ± 0.36
GGTSIPVVGNQGMIGYVPCD	0.825 ± 0.43
GGVVCRVKGKNRFPLVSWQF	-0.565 ± 0.61
GGWFIINRHHLCYSRNLPPE	0.271 ± 0.69
GGYGLYCDHRYVTTTWWHSS	0.926 ± 0.66
GHAEIYMWTLGIPSRLFGAI	0.049 ± 0.45
GHGWITMVTDCR	1.87 ± 0.4
GHIHFWASRDLPTKCHILGL	-0.181 ± 0.67
GHLNQCGLNL	-0.136 ± 0.38
GHLSA	inactive
GHNLRLWCCNEADHFFRAQR	-1.16 ± 1.9
GHYKGECYSLMNPV	-0.067 ± 1.2
GICLKMYYVSACWESNVDTI	1.88 ± 0.18
GIGHELFSNWVMEQLA	-0.23 ± 0.35
GIKAIKCDEPSCAVLGLNSS	-0.536 ± 0.5
GIMSRDGKICMVSV	-0.091 ± 0.81
GIRKKVPIVVCNIFQFECKR	2.51 ± 0.1
GISFP	-0.737 ± 0.31
GIYGQWTQ	0.697 ± 0.85
GKIRSKKGQSLGQNT	-1.16 ± 1.2
GKQGRIQDSVYDWCCCNLSG	0.255 ± 1.2

Substance	amyloid nucleation score
GKRDRMLQQIGWKLTYRCWN	0.522 ± 0.66
GKSILVVSFARKLF	-0.18 ± 1.2
GKSKAAQFN	-0.318 ± 0.31
GKSWLSMKNQISINRRSMIP	-0.449 ± 0.5
GKVAPFRDSGNIIADGNIHE	-0.219 ± 0.47
GKVFVCSIVYSIRMSITSRI	inactive
GKWPRRSW	0.376 ± 1.1
GLCFDARLLEL	-1.87 ± 2.7
GLCVMSYTVDSLLCKGIFR	inactive
GLDLMSVRWGKTMAPSSLWW	4.63 ± 0.12
GLDRTHYPFALNGCLLSTVS	0.676 ± 0.55
GLELLAGVIHSWVRGSGALW	-0.868 ± 0.84
GLEWGGVKTQMKSWTMRMGG	-1.4 ± 1.6
GLGCSSLCQLMN	0.983 ± 0.56
GLGLHWSEASFRLRMDRRFA	3.79 ± 0.069
GLGMSRPYGSAPTRPDQNKI	0.275 ± 1.1
GLGRSLKGHIMTAMRCMQGV	-0.691 ± 0.44
GLILNNLSWAHWPPGGSMWL	2.72 ± 0.17
GLKNFWM	-1.55 ± 1.9
GLLIVGRRYLGGADVDIHEE	0.713 ± 0.68
GLNLRCSNTREGKVWNRTW	-0.37 ± 0.47
GLNYLNFTREYYHLTWVVVP	4.47 ± 0.091
GLRCFCTFHCMWFVLNSSN	0.025 ± 0.34
GLRYFKLLLSEGSR	-0.209 ± 1
GLRYSVYNCFLVCRGRREWP	5.54 ± 0.057

Substance	amyloid nucleation score
GLSAEYFHFPVKRAVSMTLV	-0.049 ± 0.6
GLSGYSRVFMTADDVGVRVW	-1.18 ± 1.5
GMRIGC	0.023 ± 0.95
GMSDRQWYMTRTYCLSGPAV	0.134 ± 0.23
GMVSIL	-0.278 ± 1.2
GNCPNT	0.367 ± 0.75
GNFMNRCAFRRMGYSTISIN	1.35 ± 0.47
GNFMRLRWNVKFL	-0.016 ± 0.72
GNLSPSLCGHILLVTLIKGW	0.291 ± 0.39
GNSFISV	-0.088 ± 0.81
GNSHMFIIAYSTYMLYTQTL	0.845 ± 0.55
GNSMSHASTVKVFLAQLGGD	-1.04 ± 2.1
GNTVRYVKRMYY	-0.056 ± 0.5
GNVKSTRWFESV	0.72 ± 0.78
GPGPCWKPITGGWRTRKFTR	0.61 ± 0.56
GPSRNGWFNATLGHTLLSNT	0.638 ± 0.42
GPVSGHRPIVRD	-0.179 ± 1.1
GQAGGWTARGQSSDIDLGQR	-0.146 ± 0.63
GQDAPEDAMSVRRILVSGLA	-0.109 ± 1.5
GQIDGCGTRVNT	2.17 ± 0.14
GRCSKYCGFASATCMNGGVS	0.032 ± 0.32
GRFGVGVWW	0.127 ± 0.46
GRHSWINGYKVEV	6.938 ± 0.055
GRLFWVNVTLNLRDMNYSDM	1.09 ± 0.5
GRLGITSMMPLGCVINWPRG	3.02 ± 0.13

Substance	amyloid nucleation score
GRSCKFCYVTWVVPEP	1.25 ± 0.2
GRTHEEYF	0.048 ± 1.2
GRTVPDYLMVRSATNIRYGF	-1.19 ± 1.7
GRYTYDTMFTGWGASDELHI	1.14 ± 0.97
GSCVWFSGNRVPTFWWSGDS	-0.046 ± 0.31
GSDGVCFNKNLNSWIYMLST	0.805 ± 0.64
GSDTNSNRLIMLMFGTVFCA	2.84 ± 0.16
GSGYFDGVIFIYLT	-1.11 ± 1.1
GSHWPYDGWWISYLWFHLR	0.858 ± 0.38
GSIPDCGIGICRYKLSGIMK	0.047 ± 0.63
GSLFYVRLLYRGCNTEITSK	0.925 ± 1.1
GSMLCGEVERMSECKESGGP	-0.354 ± 0.48
GSMLLHLIILSILFFDRVES	0.148 ± 0.29
GSNFTKVCILPSLHRTLLVG	-0.222 ± 1.4
GSNKRHSYTLVLSRNVYPSG	0.014 ± 0.49
GSPLWLVVPVPGEHVSSLSL	-0.047 ± 0.36
GSRCRRLWDM	-0.02 ± 0.55
GSRYLGTPFRDIMLHVAIRW	1.08 ± 0.57
GSSFI	0.127 ± 0.57
GSSFVI	inactive
GSSMLHSFSFGGPALVCCVF	7.167 ± 0.055
